T1: monkey CD19, full length, on HEK293T cells (monkey, UniProt P15391 20-556 (human entry))
T1 construct: The entry holds the signal peptide; also called HEK293T-monkey CD19
T1 chain: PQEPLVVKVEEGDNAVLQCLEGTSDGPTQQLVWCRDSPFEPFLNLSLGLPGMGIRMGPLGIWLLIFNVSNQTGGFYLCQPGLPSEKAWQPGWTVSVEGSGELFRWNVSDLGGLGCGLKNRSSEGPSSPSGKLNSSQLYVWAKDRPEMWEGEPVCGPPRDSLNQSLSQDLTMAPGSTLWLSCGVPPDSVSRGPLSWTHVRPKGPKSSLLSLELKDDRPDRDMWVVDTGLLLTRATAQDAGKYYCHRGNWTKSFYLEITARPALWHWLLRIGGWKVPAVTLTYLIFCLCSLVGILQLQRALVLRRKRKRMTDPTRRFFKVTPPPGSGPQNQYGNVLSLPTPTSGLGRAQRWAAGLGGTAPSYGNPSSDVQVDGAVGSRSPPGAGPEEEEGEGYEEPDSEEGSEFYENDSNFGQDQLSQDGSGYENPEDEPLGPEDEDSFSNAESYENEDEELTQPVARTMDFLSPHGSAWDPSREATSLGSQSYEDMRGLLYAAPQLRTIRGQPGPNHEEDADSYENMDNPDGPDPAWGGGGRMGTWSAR

T2: cynomolgus monkey CD19 on peripheral blood B cells (cynomolgus monkey (Macaca fascicularis), UniProt A0A2K5W8L9 20-557)
T2 construct: whole, on cells; also called cynomolgus monkey B cells
T2 sequence: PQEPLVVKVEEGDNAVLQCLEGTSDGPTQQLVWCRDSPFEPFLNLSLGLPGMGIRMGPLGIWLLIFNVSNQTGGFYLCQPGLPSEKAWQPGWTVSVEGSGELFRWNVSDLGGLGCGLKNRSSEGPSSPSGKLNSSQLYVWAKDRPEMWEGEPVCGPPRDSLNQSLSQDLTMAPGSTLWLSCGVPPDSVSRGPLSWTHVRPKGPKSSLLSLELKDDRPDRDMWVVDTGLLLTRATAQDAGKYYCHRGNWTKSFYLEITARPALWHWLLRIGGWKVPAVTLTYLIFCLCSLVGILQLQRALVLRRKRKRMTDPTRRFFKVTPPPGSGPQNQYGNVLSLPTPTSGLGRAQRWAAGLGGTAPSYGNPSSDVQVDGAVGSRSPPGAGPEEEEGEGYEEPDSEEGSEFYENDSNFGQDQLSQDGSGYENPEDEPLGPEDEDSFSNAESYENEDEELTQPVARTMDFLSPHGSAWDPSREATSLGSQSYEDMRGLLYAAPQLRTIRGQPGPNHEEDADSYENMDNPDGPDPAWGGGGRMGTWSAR

T3: murine CD19 protein (murine, UniProt P25918 19-287, limits assumed)
T3 construct: also called mouse CD19-his protein
T3 sequence (looked up): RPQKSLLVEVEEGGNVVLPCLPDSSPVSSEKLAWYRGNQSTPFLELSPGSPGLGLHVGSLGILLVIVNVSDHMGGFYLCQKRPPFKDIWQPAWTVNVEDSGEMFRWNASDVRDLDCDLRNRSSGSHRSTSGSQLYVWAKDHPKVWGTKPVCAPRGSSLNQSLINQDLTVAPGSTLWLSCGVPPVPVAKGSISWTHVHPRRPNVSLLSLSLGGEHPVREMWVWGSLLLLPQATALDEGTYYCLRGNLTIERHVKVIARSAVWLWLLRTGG


Tests used:
[1] = target: T1, monkey CD19, full length, on HEK293T …; experiment: FACS on HEK293T-monkey CD19 cells
Experimental: (§1) For suspension cells Raji, the medium supernatant was discarded by direct centrifugation, and the cell pellet was washed twice with PBS. After cell counting of the cells obtained in the last step, the cell pellet was resuspended to 2×10⁶ cells/mL with a blocking solution [PBS+2% (w/w) BSA] and added into a 96-well FACS reaction plate at 50 μL/well. […] After the plate was centrifuged and washed 5 times with a PBS buffer, the results were assayed and analyzed by FACS (FACS Canto™, purchased from BD Biosciences). Data analysis was performed by software (CellQuest) to obtain the mean fluorescence intensity (MFI) of the cells. Then, analysis was performed by software (GraphPad Prism8), data were fitted, and EC₅₀ values were calculated.
(§2) HEK293T-monkey CD19 cells were subjected to the FACS assay and data analysis according to the method described in Example 4.2.

[2] = target: T1, monkey CD19, full length, on HEK293T …; experiment: FACS titration on HEK293T-monkey CD19 cells
Experimental: as §1, §2

[3] = target: T2, cynomolgus monkey CD19 on peripheral …; experiment: FACS on cynomolgus monkey PBMC, gated on CD20-positive B cells
Experimental: Monkey peripheral blood mononuclear cells were extracted from fresh cynomolgus monkey peripheral blood (purchased from Shanghai Medicilon Inc.) according to Ficoll-Paque Plus (purchased from GE Healthcare, Cat. No. 171440-02). […] The cells were incubated at room temperature for 1 h. […] The cells were incubated at room temperature for 30 min in the dark, washed 5 times, gently resuspended in PBS, and assayed and analyzed by FACS (FACS Canto™, purchased from BD Biosciences), in which CD20 was used as a marker for B cells.

murine CD19 protein = target: T3, murine CD19 protein; experiment: ELISA, murine CD19 coated
monkey CD19-his protein = monkey CD19-his protein (monkey); experiment: ELISA, monkey CD19 coated
Experimental: After incubation for 2 h at 37° C., the plate was washed 3 times with PBS. […] After incubation for 1 h at 37° C., the plate was washed 5 times with PBS. A TMB substrate was added at 50 μL/well. After incubation at room temperature for 10 min, a stop solution (1.0 N HCl) was added at 50 μL/well. The OD450 nm values were read on an ELISA microplate reader (Multimode Plate Reader, EnSight, purchased from Perkin Elmer). […] The negative control antibody mIgG1 was an antibody against hen egg lysozyme, anti-hel-mIgG1 (purchased from Biointron, Cat. No. B118301), and the data in the table were OD450 nm values.
IgG control was mIgG1, S003-NB151-89 was a clone that is selected from a library constructed by peripheral blood collected from Alpaca immunized by human CD19-His and can bind to a monkey CD19-His protein, and was used as a positive control, and the data in the table were OD450 nm values.

Row | Binder | EC50 [1] [nM] | maximum mean fluorescence intensity [1] [MFI] | EC50 (read off the curve) [2] [nM] | proportion of positive cells to B cells (%) at 1 nM [3] [%] | proportion of positive cells to B cells (%) at 10 nM [3] [%] | proportion of positive cells to B cells (%) at 100 nM [3] [%] | OD450 at 0.0001 nM (murine CD19 protein) [OD450] | OD450 at 0.001 nM (murine CD19 protein) [OD450] | OD450 at 0.01 nM (murine CD19 protein) [OD450] | OD450 at 0.10 nM (murine CD19 protein) [OD450] | OD450 at 1.00 nM (murine CD19 protein) [OD450] | OD450 at 10.00 nM (murine CD19 protein) [OD450] | OD450 at 100.00 nM (murine CD19 protein) [OD450] | OD450 at 0.0001 nM (monkey CD19-his protein) [OD450] | OD450 at 0.001 nM (monkey CD19-his protein) [OD450] | OD450 at 0.01 nM (monkey CD19-his protein) [OD450] | OD450 at 0.10 nM (monkey CD19-his protein) [OD450] | OD450 at 1.00 nM (monkey CD19-his protein) [OD450] | OD450 at 10.00 nM (monkey CD19-his protein) [OD450] | OD450 at 100.00 nM (monkey CD19-his protein) [OD450]
1 | 9G8-mIgG1 (antibody, V domains shown, Control anti-CD19 antibody with monkey cross-activity) VH: EVQLVQSGAEVKKPGESLKISCKGSGYSFTSYWIGWVRQMPGKGLEWMGIIYPGDSDTRYSPSFQGQVTISADKSISTAYLQWSSLKASDTAMYYCARGVSGIYNLHGFDIWGQGTLVTVSS VL: DIQMTQSPSSLSASVGDRVTITCRASQSISSYLNWYQQKPGKAPKLLIYAASSLQSGVPSRFSGSGSGTDFTLTISSLQPEDFATYYCQQGRFGSPFTFGQGTKVEIKR | 2.08 | 19500 | ~0.4 | 3 | 14 | 71 | – | – | – | – | – | – | – | – | – | – | – | – | – | –
2 | FMC63-mIgG1 (antibody, V domains shown, Parent murine antibody; also called murine antibody FMC63) VH: EVKLQESGPGLVAPSQSLSVTCTVSGVSLPDYGVSWIRQPPRKGLEWLGVIWGSETTYYNSALKSRLTIIKDNSKSQVFLKMNSLQTDDTAIYYCAKHYYYGGSYAMDYWGQGTSVTVSS VL: DIQMTQTTSSLSASLGDRVTISCRASQDISKYLNWYQQKPDGTVKLLIYHTSRLHSGVPSRFSGSGSGTDYSLTISNLEQEDIATYFCQQGNTLPYTFGGGTKLEITR | – | – | – | – | – | – | 0.06 | 0.06 | 0.05 | 0.05 | 0.06 | 0.07 | 0.1 | 0.05 | 0.05 | 0.05 | 0.05 | 0.05 | 0.05 | 0.09

Source: patent US20230406922A1 (SIMCERE ZAIMING PHARMACEUTICAL, published 2023)
